Measurements as given in PMC7022778.

Target: catalase from Serratia sp. strain I1P (Serratia sp. strain I1P)
Test: SEC; Superdex-200 in 50 mM Tris HCl pH 8.0 with 0.2 M NaCl, calibrated with standard proteins; native apparent mass compared with the subunit mass by SDS-PAGE

stoichiometry N: 4
Substance: catalase from Serratia sp. strain I1P (enzyme)
